How the values were obtained:
RNAse B = RNAse B (UniProt P61823)
porcine uteroferrin = porcine uteroferrin (UniProt P09889)
UniProt P09889, sequence (P09889 22-340): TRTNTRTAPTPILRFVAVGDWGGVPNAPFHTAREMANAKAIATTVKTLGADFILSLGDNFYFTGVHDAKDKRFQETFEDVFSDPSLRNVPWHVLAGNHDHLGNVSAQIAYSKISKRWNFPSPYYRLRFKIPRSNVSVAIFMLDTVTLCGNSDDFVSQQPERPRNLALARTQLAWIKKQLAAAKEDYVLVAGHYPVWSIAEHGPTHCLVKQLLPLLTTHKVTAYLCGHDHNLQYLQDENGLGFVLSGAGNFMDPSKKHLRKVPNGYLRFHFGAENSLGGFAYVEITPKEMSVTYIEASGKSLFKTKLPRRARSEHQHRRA

UniProt P61823, sequence (P61823 27-150): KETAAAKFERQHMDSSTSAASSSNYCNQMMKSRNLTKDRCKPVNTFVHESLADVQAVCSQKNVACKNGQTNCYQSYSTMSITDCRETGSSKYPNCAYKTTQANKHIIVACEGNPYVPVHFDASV

“bovine GlcNAc-phosphotransferase (UDP-N-acetylglucosamine: lysosomal enzyme N-acetylglucosamine-1-phosphotransferase)” was tested, and the “Km as acceptor for the transfer of GlcNAc-1-P” value (“Km as acceptor … of GlcNAc-1-P” below) (RNAse B) was “the Km was not reached at the solubility limit of the protein (at 600 µM)”, the “Km as acceptor … of GlcNAc-1-P” value (cathepsin D) was “Kms below 20 µM” and the “Km as acceptor … of GlcNAc-1-P” value (porcine uteroferrin) was “Kms below 20 µM”.
